Results published in patent CN114539393A (BEIJING NEUABO XINESCAPE BIOTECHNOLOGY CO LTD, dated 2022).

Target: T1, SARS-CoV2的N蛋白 (SARS-CoV2, UniProt P0DTC9 1-419)
T1 construct: also called 新冠状病毒N蛋白; 2019-新型冠病毒N蛋白
Experiment: ELISA, N protein coated at 2 ug/ml, VHH at 10.0 and 1.0 ug/ml, anti-Myc-HRP detection, OD450

B1: N2-10单域抗体 (VHH)
VHH: QVQLVESGGGLVQTGGSLGVSCAASGRTFSIYAMGWFRQAPGKEREFVAAISKSGDGKYYADSVKGRFTISRDNAKNTVALQMNSLKFEDTAVYYCVASRTVVSGASPDEYDLWGQGTQVTVSS
notes: also called 单域抗体N2-10; N2-10-PSJF; not shown: c-myc and His6 tags from the pSJF2 vector
B1: binds.

B2: N2-8单域抗体 (VHH)
VHH: QVQLVESGGGSVQAGGSLRLSCAASGRTFSIYAMGWFRQAPGKEREFVAAISKSGEGTYYADSVKGRFTISRDNAKNTVALQMNSLKSEDTAVYYCAASRVVVSGLSPSDYAYWGQGTQVTVSS
notes: also called 单域抗体N2-8; N2-8-pSJF2; not shown: c-myc and His6 tags from the pSJF2 vector
B2: binds.
